For this data set the following is noted: Aspergillus oryzae (strain ATCC 42149 / RIB 40), Thermal, whole UniProt chain shown.
Where [1] appears, read: pH 1.1, DSC, glycine-HCl 0.1 M/0.1 M, NaCl 0.1 M, reversible: yes(77%).
Setting [2] is: pH 1.5, DSC, glycine-HCl 0.1 M/0.1 M, NaCl 0.1 M, reversible: yes(99%).
Where [3] appears, read: pH 2, DSC, glycine-HCl 0.1 M/0.1 M, NaCl 0.1 M, reversible: yes(80%).
Where [4] appears, read: pH 3, DSC, glycine-HCl 0.1 M/0.1 M, NaCl 0.1 M, reversible: yes(80%).
[5] abbreviates: pH 7, DSC, None, reversible: yes(26%).

This is an account of results in FireProtDB (doi:10.1110/ps.8.4.832).

One may read the Tm as the temperature at the midpoint of the melting transition.

B1: Guanyl-specific ribonuclease T1 wild type, P00651 (protein)
chain: MMYSKLLTLTTLLLPTALALPSLVERACDYTCGSNCYSSSDVSTAQAAGYQLHEDGETVGSNSYPHKYNNYEGFDFSVSSPYYEWPILSSGDVYSGGSPGADRVVFNENNQLAGVITHTGASGNNFVECT
Regarding B1, the Tm was 25.9 °C (pH 1.1, Absorbance, glycine-HCl 0.1 M/0.1 M, NaCl 0.1 M, reversible: yes(77%)); 28.2 °C under setting [1]; 32.3 °C under setting [2]; 33 °C (pH 2, Absorbance, glycine-HCl 0.1 M/0.1 M, NaCl 0.1 M, reversible: yes(80%)); 37 °C under setting [3]; 46.1 °C (pH 3, Absorbance, glycine-HCl 0.1 M/0.1 M, NaCl 0.1 M, reversible: yes(80%)). Also, the Tm by setting is: under setting [4], 50.2 °C; (pH 3.5, Absorbance, glycine-HCl 0.1 M/0.1 M, NaCl 0.1 M, reversible: yes(73%)) 52.7 °C; (pH 7, Absorbance, None, reversible: yes(26%)) 62.8 °C; under setting [5], 64.4 °C. In addition, the “unfolding enthalpy (calorimetric)” value by setting is: under setting [1], 43.3 kcal/mol; under setting [2], 47.6 kcal/mol; under setting [3], 68.9 kcal/mol; under setting [4], 95.7 kcal/mol; under setting [5], 123 kcal/mol. For the same protein, the “unfolding enthalpy (van 't Hoff)” value runs as follows: under setting [1], 55.7 kcal/mol; under setting [2], 60.5 kcal/mol; under setting [3], 66.3 kcal/mol; under setting [4], 93.1 kcal/mol; under setting [5], 116 kcal/mol.
